These are literature values, as cited in PMC3369218 (Biochemistry, 2012).

For this series the following is noted: for E′ (Fe^3+/Fe^2+): 25 °C, pH 7.

B1: Cld from I. dechloratans: chlorite dismutase from Ideonella dechloratans (protein, UniProt Q9F437 39-285, looked up)
Chlorite dismutase: AMNTPVDRAKILSAPGVFVAFSTYKIRPDYFKVALAERKGAADEVMAVLEKHKEKVIVDAYLTRGYEAKSDYFLRVHAYDAVAAQAFLVDFRATRFGMYSDVTESLVGITKALNYISKDKSPDLNKGLSGATYAGDAPRFAFMIPVKKNADWWNLTDEQRLKEMETHTLPTLPFLVNVKRKLYHSTGLDDTDFITYFETNDLGAFNNLMLSLAKVPENKYHVRWGNPTVLGTIQPIENLVKTLSMGN
Take B1: the reduction potential entry is listed as “–21 mV” and the “E′ (Fe^3+/Fe^2+)” value was “–0.021 V vs NHE”.

B2: WT CcP from S. cerevisiae: wild-type cytochrome c peroxidase (protein, UniProt P00431 68-361, looked up)
Cytochrome c peroxidase, …: TTPLVHVASVEKGRSYEDFQKVYNAIALKLREDDEYDNYIGYGPVLVRLAWHTSGTWDKHDNTGGSYGGTYRFKKEFNDPSNAGLQNGFKFLEPIHKEFPWISSGDLFSLGGVTAVQEMQGPKIPWRCGRVDTPEDTTPDNGRLPDADKDADYVRTFFQRLNMNDREVVALMGAHALGKTHLKNSGYEGPWGAANNVFTNEFYLNLLNEDWKLEKNDANNEQWDSKSGYMMLPTDYSLIQDPKYLSIVKEYANDQDKFFKDFSKAFEKLLENGITFPKDAPSPFIFKTLEEQGL
Take B2: the “E′ (Fe^3+/Fe^2+)” value is “–0.189 V vs NHE”.

B3: CcP(R48K) from S. cerevisiae: cytochrome c peroxidase R48K distal pocket mutant (protein, UniProt P00431 68-361, looked up, variant R48K)
Cytochrome c peroxidase, …: TTPLVHVASVEKGRSYEDFQKVYNAIALKLREDDEYDNYIGYGPVLVKLAWHTSGTWDKHDNTGGSYGGTYRFKKEFNDPSNAGLQNGFKFLEPIHKEFPWISSGDLFSLGGVTAVQEMQGPKIPWRCGRVDTPEDTTPDNGRLPDADKDADYVRTFFQRLNMNDREVVALMGAHALGKTHLKNSGYEGPWGAANNVFTNEFYLNLLNEDWKLEKNDANNEQWDSKSGYMMLPTDYSLIQDPKYLSIVKEYANDQDKFFKDFSKAFEKLLENGITFPKDAPSPFIFKTLEEQGL
B3: the “E′ (Fe^3+/Fe^2+)” value is given as “–0.186 V vs NHE”.
